T1: human BTLA (human, UniProt Q7Z6A9 31-289)
T1 construct: also called hBTLA; HEK293.hBTLA
T1 sequence: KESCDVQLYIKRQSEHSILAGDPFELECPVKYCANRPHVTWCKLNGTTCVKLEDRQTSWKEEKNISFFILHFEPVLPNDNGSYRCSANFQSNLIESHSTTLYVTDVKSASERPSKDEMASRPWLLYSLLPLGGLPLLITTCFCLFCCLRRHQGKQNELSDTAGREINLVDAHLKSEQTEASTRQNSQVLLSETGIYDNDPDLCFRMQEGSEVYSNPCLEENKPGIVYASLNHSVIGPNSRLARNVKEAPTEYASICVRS


Biological target: T1, human BTLA
Assay: flow cytometry, HEK293 cells overexpressing human BTLA
Procedure: HEK293 cells overexpressing human BTLA and Expi293 cells overexpressing cynomolus BTLA were incubated with different concentrations of humanized anti-BTLA antibodies. Anti-BTLA antibody binding to target cells were quantified with an AF647-conjugated anti-human IgG Fc secondary antibody by flow cytometry.

binding result	Binder
binds	HFB6-4hz19-hG1 (antibody, human IgG1, V domains shown, Humanized variant of HFB6-4, human IgG1 (hG1)) VH: QVQLVQSGAEVKKPGSSVKVSCKTSGFNIKDTYIHWVRQAPGQGLEWIGRNDPANGNTKYAQKFQGRATITADESTSTAYMELSSLRSEDTAVYYCASYEGYYERFGYWGQGTLVTVSS VL: DIVMTQSPDSLAVSLGERATINCKSSQSLLDRDGKTYLNWLQQKPGQSPKRLIYLVSKLDSGVPDRFSGSGSGTDFTLTISSLQAEDLAVYYCWQDTHFPYTFGQGTKLEIK
binds	HFB6-4hz20-hG1 (antibody, human IgG1, V domains shown, Humanized variant of HFB6-4, human IgG1 (hG1)) VH: QVQLVQSGAEVKKPGASVKVSCKTSGFNIKDTYIHWVRQAPGQGLEWIGRNDPANGNTKYAQKFQGRVTMTADTSTSTVYMELSSLRSEDTAVYYCASYEGYYERFGYWGQGTLVTVSS VL: DIVMTQSPDSLAVSLGERATINCKSSQSLLDRDGKTYLNWLQQKPGQSPKRLIYLVSKLDSGVPDRFSGSGSGTDFTLTISSLQAEDLAVYYCWQDTHFPYTFGQGTKLEIK
